Results on two molecules are retold here after US20200330588A1 (ICAHN SCHOOL OF MEDICINE AT MOUNT SINAI, published 2020).

The target of assay [1] is gH alanine mutant 478-488 (label as in Table 6). Description: flow cytometry, HEK293 cells transfected with gH alanine mutant and gL; % of gH-positive cells compared to WT. (In general: A flow cytometer gives signals particle by particle.)
In assay [2] the target is T1, gH alanine mutant 480-481 transfected into HEK293 cells with gL (Human cytomegalovirus (consensus …)).
T1 construct: whole, on cells
The assay is described as above.

Assay [3] addresses T2, gH alanine mutant 484-485 transfected into HEK293 cells with gL (Human cytomegalovirus (consensus …)).
T2 construct: whole, on cells
The description is as above.

Assay [4] concerns the target T3, gH alanine mutant 482-483 transfected into HEK293 cells with gL (Human cytomegalovirus (consensus …)).
T3 construct: whole, on cells
The assay is described as above.

For assay [5], the target named is T4, gH alanine mutant 488-489 transfected into HEK293 cells with gL (Human cytomegalovirus (consensus …)).
T4 construct: whole, on cells
Described as above.

The target in assay [6] is T5, gH alanine mutant 486-487 transfected into HEK293 cells with gL (Human cytomegalovirus (consensus …)).
T5 construct: whole, on cells
The assay is described as above.

Assay [7] concerns the target T6, gH mutant 480-486 (consecutive alanine substitutions) transfected into HEK293 cells with gL (Human cytomegalovirus (consensus …)).
T6 construct: whole, on cells; also called 480-486 mutant; gH mutant 480-86
The description is as above.

In assay [8] the target is T7, gH alanine mutant 490-491 transfected into HEK293 cells with gL (Human cytomegalovirus (consensus …)).
T7 construct: whole, on cells
Described as above.

Assay [9] concerns the target T8, gH mutant 485-492 (consecutive alanine substitutions) transfected into HEK293 cells with gL (Human cytomegalovirus (consensus …)).
T8 construct: whole, on cells; also called 485-492 mutant; gH mutant 485-92
The description is as above.

The target in assay [10] is HCMV glycoprotein gH, strain TR (virions) (Human cytomegalovirus strain TR). As to the kind of experiment: cell-based or functional assay.
Assay [11] deals with HCMV glycoprotein gH, strain VHL/E (virions) (Human cytomegalovirus strain VHL/E). Description: cell-based or functional assay.
Assay [12] has as its target HCMV glycoprotein gH, strain AD169 (AD169IE2-YFP-infected MRC5 cells and virions) (Human cytomegalovirus strain AD169, UniProt P12824 24-743). As to the kind of experiment: cell-based or functional assay.
The target in assay [13] is HCMV glycoprotein gH, strain DAVIS (virions) (Human cytomegalovirus strain DAVIS). As to the kind of experiment: cell-based or functional assay.
Assay [14] addresses T9, HCMV glycoprotein gH, strain TB40/E (U373^gH cells, TB40/E-infected cells, virions) (Human cytomegalovirus strain TB40/E). Description: cell-based or functional assay.
The target of assay [15] is T9, HCMV glycoprotein gH, strain TB40/E …. Description: cell-based or functional assay. This is another data set of the same source.
The target of assay [16] is T10, cyclic gH peptides (7, 10 and 13 aa libraries) spanning gH residues 485-493 (Human cytomegalovirus, cyclized with a thioether linkage between the N' and C' termini).
T10 construct: also called region spanning residues 485-493
As to the kind of experiment: cyclic peptide microarray (PEPperCHIP), anti-mouse DyLight680 detection.

B1: monoclonal antibody 10C10 (antibody, V domains shown)
VH: EVQLQQSGPELVKPGVSMRISCKASGFSFTDYTMNWVKQSHRKNLEWIGLVNPYNGGTSHNPNFKGKATLTVDKSSSTAYMELLSLTSEDSAVYYCARRGRRDYALDYWGQGTSVTVSS
VL: DIVLTQSPVTLSVTPGDSVSLSCRASQSVSNNLHWYQQKSHESPRLLIKYASQSISGIPSRFRGSGSGTDFTLSIISVETEDFGMYFCQQSNIWPHTFGAGTKLELKR
notes: also called mAb 10C10; 10C10^647 (Alexa Fluor 647 conjugate)
For the molecule B1, the “Avg. binding (% of mass)” value in assay [1] is 100%; in [2] it was 70%; in [3], 3%; in assay [4], 91%; in assay [5], 98%; in assay [6] it was 2%. For the same molecule, the “Avg. binding (% of mass)” value in [7] came to 3%; in assay [8] it was 72%; in assay [9], 2%. Also, the “IC50, strain TR, epithelial cells, α-IE staining” value in [10] turned out to be 0.44 µg/mL. Also, the “IC50, strain TR, fibroblasts, plaque assay” value in assay [10] amounted to 2.43 µg/mL. The “IC50, strain TR, fibroblasts, α-IE staining” value in assay [10] was 2.34 µg/mL. The “IC50, strain VHL/E, epithelial cells, α-IE staining” value in assay [11] turned out to be 0.11 µg/mL. Moreover, the “IC50, strain VHL/E, fibroblasts, plaque assay” value in assay [11] was determined as 0.24 µg/mL. The “IC50, strain VHL/E, fibroblasts, α-IE staining” value in assay [11] was 0.24 µg/mL. The “IC50, neutralization of AD169IE2-YFP infection of fibroblasts (IE2-YFP read-out)” value in assay [12] amounted to 0.5 µg/mL. For the same molecule, the “IC50, strain Davis, fibroblasts, plaque assay” value in assay [13] is 0.37 µg/mL. In [14], the “IC50, neutralization of TB40/E FLAG-YFP infection of fibroblasts (FLAG-YFP read-out)” value came to 0.38 µg/mL. Further, the “IC50, strain TB40/E, epithelial cells, α-IE staining” value in [14] amounted to 1.35 µg/mL. For the same molecule, the “IC50, strain TB40/E, fibroblasts, plaque assay” value in assay [14] amounted to 1.28 µg/mL. Further, the “IC50, strain TB40/E, fibroblasts, α-IE staining” value in [14] was 4.18 µg/mL. For the same molecule, the “IC50, neutralization of TB40/E FLAG-YFP infection of ARPE-19 epithelial cells (YFP read-out)” value in [15] is 0.13 µg/mL.

B2: monoclonal antibody 5C3 (antibody, V domains shown)
VH: QVQLQQPGAELVRPGASVKLSCKASGYTFTTYWMNWVKQRPGQGLEWIGMIDPSDSETHYNQMFKDKATLTVDTSSSTAYMQLSSLTSEDSAVYYCARGRSWFVYWGQGTLVTVSS
VL: DIVLTQSPASLAVSLGQRATISCRASKSVSSSGYSYVHWYQQKPGQPPKLLIYLASNLESGVPARFSGSGSGTDFTLNIHSVEEEDAATYYCQHNRELPYTFGGGTKLEIKR
notes: also called mAb 5C3; 5C3^647 (Alexa Fluor 647 conjugate)
For B2, the fold over background in assay [16] was roughly 3 fold. Also, the “Avg. binding (% of mass)” value in [1] came out at 100%; in [2], 72%; in assay [3] it was 76%; in [4] it was 85%; in [5], 113%; in [6] it was 56%. For the same molecule, the “Avg. binding (% of mass)” value in [7] was found to be 14%; in [8] it was 92%; in [9] it was 49%. In assay [10], the “IC50, strain TR, epithelial cells, α-IE staining” value worked out at 0.16 µg/mL. Besides, in assay [10], the “IC50, strain TR, fibroblasts, plaque assay” value turned out to be 2.13 µg/mL. In addition, in assay [10], the “IC50, strain TR, fibroblasts, α-IE staining” value came out at 0.63 µg/mL. Moreover, in [11], the “IC50, strain VHL/E, epithelial cells, α-IE staining” value was 0.11 µg/mL. Also, in [11], the “IC50, strain VHL/E, fibroblasts, plaque assay” value amounted to 0.02 µg/mL. For the same molecule, the “IC50, strain VHL/E, fibroblasts, α-IE staining” value in assay [11] turned out to be 0.02 µg/mL. For the same molecule, the “IC50, neutralization of AD169IE2-YFP infection of fibroblasts (IE2-YFP read-out)” value in assay [12] is 0.24 µg/mL. The “IC50, strain Davis, fibroblasts, plaque assay” value in [13] was 0.22 µg/mL. The “IC50, neutralization of TB40/E FLAG-YFP infection of fibroblasts (FLAG-YFP read-out)” value in assay [14] worked out at 0.07 µg/mL. The “IC50, strain TB40/E, epithelial cells, α-IE staining” value in assay [14] stood at 0.96 µg/mL. Besides, the “IC50, strain TB40/E, fibroblasts, plaque assay” value in assay [14] turned out to be 0.45 µg/mL. Further, the “IC50, strain TB40/E, fibroblasts, α-IE staining” value in [14] came out at 0.88 µg/mL. In addition, the “IC50, neutralization of TB40/E FLAG-YFP infection of ARPE-19 epithelial cells (YFP read-out)” value in assay [15] turned out to be 0.04 µg/mL.
